Assay results reported in patent publication US7786071B2 (priority 2003, dated 2010).
Like-named read-outs stand apart in the source and are kept apart here.

Experiments:
[1] = read-out: Kd for the first (higher affinity) calcium; cited from earlier work
[2] = read-out: KM(PheAc); cited from earlier work
[3] = read-out: KM for L-HcyT hydrolysis; cited from earlier work
[4] = read-out: KM(Paraoxon); cited from earlier work
[5] = type: biochemical
[6] = type: biochemical; conditions: pH 8; for Km: read-out: KM(Paraoxon)
[7] = type: biochemical; conditions: read-out: 2-Naphthyl acetate KM
[8] = type: biochemical; remark: listed apart in the source
[9] = type: biochemical; conditions: read-out: Dihydrocoumarin KM
[10] = type: biochemical; conditions: read-out: KM for L-Hcy hydrolysis
[11] = type: biochemical; conditions: read-out: DEPCyC hydrolysis KM
[12] = read-out: Phenylacetate hydrolysis KM

B1: RabPON1: wild-type rabbit PON1, GenBank Accession No. AF220943 (protein, listed as Rattus norvegicus)
chain: MAKLLGLTLVGLVLALYKNHRSSYQTRLNAFREVTPVDLPNCTLVKGIEAGAEDLEILPNGLTFFSTGLKYPGIKSFDPSKPGKILLMDLNEKEPAVSELAIMGNTLDMSSFNPHGISTFIDEDNTVYLLVVSHPDSSSTVEVFKFQEEERSLLHLKTITHELLPSINDIAAVGPESFYATNDHYFADPYLRSWEMYLGLSWSNVVYYSPDKVRVVADGFDFANGIGISLDGKYVYIAELLAHKIHVYEKHANWTLTPLKVLSFDTLVDNISVDPVTGDLWVGCHPNGMRIFFYDSENPPGSEVLRIQSILSEDPKVTVVYAENGTVLQGTTVAAVYKGKLLIGTVFHRALCCDL
Kd [1]: 50 nM

B2: hPON1: wild-type human PON1; kinetic values for enzyme purified from sera; SEQ ID NO: 24, 36 (protein, listed as Homo sapiens)
chain: MAKLIALTLLGMGLALFRNHQSSYQTRLNALREVQPVELPNCNLVKGIETGSEDLEILPNGLAFISSGLKYPGIKSFNPNSPGKILLMDLNEEDPTVLELGITGSKFDVSSFNPHGISTFTDEDNAMYLLVVNHPDAKSTVELFKFQEEEKSLLHLKTIRHKLLPNLNDIVAVGPEHFYGTNDHYFLDPYLQSWEMYLGLAWSYVVYYSPSEVRVVAEGFDFANGINISPDGKYVYIAELLAHKIHVYEKHANWTLTPLKSLDFNTLVDNISVDPETGDLWVGCHPNGMKIFFYDSENPPASEVLRIQNILTEEPKVTQVYAENGTVLQGSTVASVYKGKLLIGTVFHKALYCEL
Km [2]: 420 µM | Km [3]: 23000 µM | Kd [1]: 360 nM | Km [4]: 540 µM

B3: 7HY: G3C9-derived PON1 variant, mutations F292V, Y293D, I109M; SEQ ID NO: 74, 75 (protein)
chain: MAKLTALTLLGLGLALFDGQKSSFQTRFNVHREVTPVELPNCNLVKGVDNGSEDLEILPNGLAFISSGLKYPGIMSFDPDKSGKILLMDLNEEDPVVLELGITGNTLDMSSFNPHGISTFTDEDNTVYLLVVNHPDSSSTVEVFKFQEEEKSLLHLKTIRHKLLPSVNDIVAVGPEHFYATNDHYFADPYLKSWEMHLGLAWSFVTYYSPNDVRVVAEGFDFANGINISPDGKYVYIAELLAHKIHVYEKHANWTLTPLKSLDFDTLVDNISVDPVTGDLWVGCHPNGMRIVDYDPKNPPGSEVLRIQDILSEEPKVTVVYAENGTVLQGSTVAAVYKGKLLIGTVFHKALYCEL
modifications: In vitro evolved PON variant 7HY
shift in substrate selectivity [5]: up to 4,600 fold

B4: G3H8: third-round rPON1 variant, unmodified 355 aa protein without tags; SEQ ID NO: 29 (DNA), 61 (protein) (protein)
chain: MAKLTAPTLLGLGLALFDRQKSSFQTRFNVHREVTPVELPNCNLVKGIDNGSEDLEILPNGLAFISSGLKYPGIMSFDPDKSGKILLMDLNEEDPVVLELGITGSTFDLSSFNPHGISTFTDEDNTVYLLVVNHPDSSSTVEVFKFQEKERSLLHLKTIRHKLLPSVNDIVAVGPESFYATNDHYFADPYLKSWEMHLGLAWSFVTYYSPNDVRVVAEGFDFANGINISPDGKYVYIAELLAHKIHVYEKHANWTLTPLKSLDFNTLVDNISVDPVTGDLWVGCHPNGMRIFYYDPENPPGSEVLRIQDILSKEPKVTVVYAENGTVLQGSTVAAVYKGKLLIGTVFHKALYCDL
modifications: In vitro evolved PON variant G3H8
kcat(Paraoxon) [6]: 1.2 s⁻¹ | Km [6]: 88 µM | Km [7]: 110 µM | kcat (PheAc) ([8]; pH 8): 1018 s⁻¹ | Km ([8]; pH 8, read-out: KM(PheAc)): 320 µM | Km [9]: 76 µM | Km [10]: ~19000 µM

B5: G3C9: third-round highly soluble rPON1 variant without tags, wt-like activity; SEQ ID NO: 55 (DNA), 56 (protein) (protein)
chain: MAKLTALTLLGLGLALFDGQKSSFQTRFNVHREVTPVELPNCNLVKGVDNGSEDLEILPNGLAFISSGLKYPGIMSFDPDKSGKILLMDLNEEDPVVLELGITGNTLDISSFNPHGISTFTDEDNTVYLLVVNHPDSSSTVEVFKFQEEEKSLLHLKTIRHKLLPSVNDIVAVGPEHFYATNDHYFADPYLKSWEMHLGLAWSFVTYYSPNDVRVVAEGFDFANGINISPDGKYVYIAELLAHKIHVYEKHANWTLTPLKSLDFDTLVDNISVDPVTGDLWVGCHPNGMRIFYYDPKNPPGSEVLRIQDILSEEPKVTVVYAENGTVLQGSTVAAVYKGKLLIGTVFHKALYCEL
modifications: In vitro evolved PON variant G3C9
kcat(Paraoxon) [6]: 1.1 s⁻¹ | Km [6]: 94 µM | Km [11]: 70 µM | kcat (PheAc) ([8]; pH 8): 789 s⁻¹ | Km ([8]; pH 8, read-out: KM(PheAc)): 330 µM | Km [8, 12]: 330 µM

B6: G1A5: first-round directly evolved PON1 variant, thioredoxin-fused; SEQ ID NO: 25 (DNA), 57 (protein) (protein)
chain: MAKLTALTLLGLGLALFDGQKSSFQTRFNVHREVTPVELPNCNLVKGIDNGSEDLEILPNGLAFISSGLKYPGIMSFDPDKSGKILLMDLNEEDPVVLELGITGNTLDISSFNPHGISTFIDEDNTVYLLVVNHPDSSSTVEVFKFQEKEKSLLHLKTIRHKLLPSVNDIVAVGPEHFYATNDHYFIDPYLKSWEMHLGLAWSFVTYYSPNDVRVVAEGFDFANGINISPDGKYVYIAELLAHKIHVYEKHANWTLTPLKSLDFNTLVDNISVDPVTGDLWVGCHPNGMRIFYYDPENPPGSEVLRIQNILSKEPKVTVVYAENGTVLQGTTVASVYKGKLLIGTVFHKALYCEL
modifications: thioredoxin-fused; In vitro evolved PON variant G1A5
kcat(Paraoxon) [6]: 1.16 s⁻¹ | Km [6]: 85 µM | Km [7]: 80 µM | kcat (PheAc) ([8]; pH 8): 833 s⁻¹ | Km ([8]; pH 8, read-out: KM(PheAc)): 390 µM | Km [9]: 120 µM

B7: G3C9.49: G3C9 variant with mutations G19R, S193P, N287D and V346A; SEQ ID NO: 64, 65 (protein)
chain: MAKLTALTLLGLGLALFDRQKSSFQTRFNVHREVTPVELPNCNLVKGVDNGSEDLEILPNGLAFISSGLKYPGIMSFDPDKSGKILLMDLNEEDPVVLELGITGNTLDISSFNPHGISTFTDEDNTVYLLVVNHPDSSSTVEVFKFQEEEKSLLHLKTIRHKLLPSVNDIVAVGPEHFYATNDHYFADPYLKPWEMHLGLAWSFVTYYSPNDVRVVAEGFDFANGINISPDGKYVYIAELLAHKIHVYEKHANWTLTPLKSLDFDTLVDNISVDPVTGDLWVGCHPDGMRIFYYDPKNPPGSEVLRIQDILSEEPKVTVVYAENGTVLQGSTVAAVYKGKLLIGTAFHKALYCEL
modifications: In vitro evolved PON variant G3C9.49
Km [11]: 80 µM | Km [8, 12]: 300 µM
